The record followed here is PMC10940770, “Loss of function and reduced levels of sphingolipid desaturase DEGS1 variants are both relevant in disease mechanism” (Journal of Lipid Research, 2024).

As usually defined, the Km is the concentration of substrate that gives half-maximal velocity.

Changes are numbered by the printed parent chain. Names may count otherwise.

Substrate in data set [1]: CCCCCCCCCCCCCCC[C@@H](O)[C@H](CO)NC(=O)CCCCCCCCCCCC
In words: LC-MS/MS of C13-Cerd7 formed; Hanes-Woolf plot. It is filed as biochemical, Homo sapiens. The settings on record: 0.2 M Tris/HCl pH 7, 0.2% Triton X-100, 1 mM NADPH, 37°C, deuterated substrate. From the text: LC-MS/MS of C13-Cerd7 formed; Hanes-Woolf plot on DEGS1

Substrate in data set [2]: CCCCCCCCCCCCCCC[C@@H](O)[C@H](CO)NC(=O)CCCCCCCCCCCC
In words: LC-MS/MS of C13-Cerd7 formed; Hanes-Woolf plot. It is filed as biochemical, Homo sapiens. Conditions: homogenate of transfected KO-DES-HEK (80 μg, 30 min) plus 100 μg KO-DES-HEK homogenate, 0.2 M Tris/HCl pH 7, 0.2% Triton X-100, 1 mM NADPH, 37°C, deuterated substrate. The source says:
LC-MS/MS of C13-Cerd7 formed; Hanes-Woolf plot on DEGS2

Where [3] appears, read: homogenate of transfected KO-DES-HEK (80 μg, 30 min) plus 100 μg KO-DES-HEK homogenate.

B1: DEGS1 (Homo sapiens) (protein)
chain: GSRVSREDFEWVYTDQPHADRRREILAKYPEIKSLMKPDPNLIWIIIMMVLTQLGAFYIVKDLDWKWVIFGAYAFGSCINHSMTLAIHEIAHNAAFGNCKAMWNRWFGMFANLPIGIPYSISFKRYHMDHHRYLGADGVDVDIPTDFEGWFFCTAFRKFIWVILQPLFYAFRPLFINPKPITYLEVINTVAQVTFDILIYYFLGIKSLVYMLAASLLGLGLHPISGHFIAEHYMFLKGHETYSYYGPLNLLTFNVGYHNEHHDFPNIPGKSLPLVRKIAAEYYDNLPHYNSWIKVLYDFVMDDTISPYSRMKRHQKGEMVLE
notes: full-length cDNA (from Hep3B RNA) in pcDNA3, untagged, transfected into DEGS1-knockout HEK-293T (KO-DES-HEK); cell homogenate with Triton X-100
Regarding B1, the Km in data set [1] (homogenate of transfected KO-DES-HEK (40 μg, 10 min) plus 100 μg KO-DES-HEK homogenate) came out at 2.41 µM.

B2: DEGS1 (Homo sapiens; N189D) (protein)
chain: B1 chain with N188D
notes: as for B1
B2: the Km in data set [1] (setting [3]) came out at 2.75 µM.

B3: DEGS1 (Homo sapiens; L175Q) (protein)
chain: B1 chain with L174Q
notes: as for B1
For the protein B3, the Km in data set [1] (setting [3]) was determined as 5.99 µM.

B4: DEGS1 (Homo sapiens; N255S) (protein)
chain: B1 chain with N254S
notes: as for B1
Turning to B4, in data set [1] (setting [3]), the Km was 4.34 µM.

B5: DEGS1 (Homo sapiens; A280V) (protein)
chain: B1 chain with A279V
notes: as for B1
B5: in data set [1] (setting [3]), the Km amounted to 3.29 µM.

B6: DEGS2 (Homo sapiens) (protein)
chain: GNSASRSDFEWVYTDQPHTQRRKEILAKYPAIKALMRPDPRLKWAVLVLVLVQMLACWLVRGLAWRWLLFWAYAFGGCVNHSLTLAIHDISHNAAFGTGRAARNRWLAVFANLPVGVPYAASFKKYHVDHHRYLGGDGLDVDVPTRLEGWFFCTPARKLLWLVLQPFFYSLRPLCVHPKAVTRMEVLNTLVQLAADLAIFALWGLKPVVYLLASSFLGLGLHPISGHFVAEHYMFLKGHETYSYYGPLNWITFNVGYHVEHHDFPSIPGYNLPLVRKIAPEYYDHLPQHHSWVKVLWDFVFEDSLGPYARVKRVYRLAKDGL
notes: full-length cDNA (from colon mucosa RNA) in pcDNA3, transfected into DEGS1-knockout HEK-293T (KO-DES-HEK); cell homogenate with Triton X-100
In the case of B6, the Km in data set [2] was found to be 15.31 µM.
